These results are taken from paper PMC10786891, “Massively parallel profiling of RNA-targeting CRISPR-Cas13d”.

The chains are these.
T1: EsCas13d, nuclease-dead (Eubacterium siraeum, UniProt B0MS50, R295A;H300A;R849A;H854A)
T1 sequence: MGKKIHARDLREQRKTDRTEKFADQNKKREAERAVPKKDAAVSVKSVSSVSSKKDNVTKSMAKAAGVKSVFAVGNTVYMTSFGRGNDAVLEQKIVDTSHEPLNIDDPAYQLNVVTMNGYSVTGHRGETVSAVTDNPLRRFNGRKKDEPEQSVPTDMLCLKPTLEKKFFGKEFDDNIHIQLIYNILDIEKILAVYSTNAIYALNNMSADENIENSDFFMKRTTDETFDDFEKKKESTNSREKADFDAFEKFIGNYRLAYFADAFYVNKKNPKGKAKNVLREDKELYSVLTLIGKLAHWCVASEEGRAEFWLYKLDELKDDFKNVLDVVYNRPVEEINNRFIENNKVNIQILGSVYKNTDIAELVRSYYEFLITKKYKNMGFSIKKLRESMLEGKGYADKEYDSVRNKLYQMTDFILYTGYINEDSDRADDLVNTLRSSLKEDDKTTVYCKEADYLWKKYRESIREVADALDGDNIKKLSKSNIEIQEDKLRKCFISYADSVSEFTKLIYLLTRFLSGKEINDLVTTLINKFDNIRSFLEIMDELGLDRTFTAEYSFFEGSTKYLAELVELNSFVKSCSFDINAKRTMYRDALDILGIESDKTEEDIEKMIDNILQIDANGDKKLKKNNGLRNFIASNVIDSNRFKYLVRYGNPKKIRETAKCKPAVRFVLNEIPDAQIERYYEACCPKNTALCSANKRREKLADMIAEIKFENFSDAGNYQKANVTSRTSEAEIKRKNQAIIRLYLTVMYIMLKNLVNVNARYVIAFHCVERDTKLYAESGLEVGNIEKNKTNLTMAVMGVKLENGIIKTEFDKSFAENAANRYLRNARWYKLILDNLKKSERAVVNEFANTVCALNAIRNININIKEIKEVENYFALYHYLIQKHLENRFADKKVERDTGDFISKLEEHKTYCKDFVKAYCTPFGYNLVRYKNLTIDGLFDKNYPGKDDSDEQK

B1: target 1 MT 5'PFS ACG 3'PFS AGC (mixed)
RNA 1: CACCCGUGCAAAAAUGCAGGGGUCUAAAACUGAGCGGAUAACCUCUCUAUGG
RNA 2: GGGAAUGGAUCCACAUCUACGAAUUCACGCCAUAGAGAGGUUAUCCGCUCAAGCAGAUCGGAAGAGCACACGU
B2: target 1 insG 3' of 10,insU 3' of 4 (mixed)
RNA 1: CACCCGUGCAAAAAUGCAGGGGUCUAAAACUGAGCGGAUAACCUCUCUAUGG
RNA 2: GGGAAUGGAUCCACAUCUACGAAUUCGUACCAUAGAGAGGUUGAUCCGCUUCACCGAGAUCGGAAGAGCACACGU
B3: target 1 MT 5'PFS GGA 3'PFS UUC (mixed)
RNA 1: CACCCGUGCAAAAAUGCAGGGGUCUAAAACUGAGCGGAUAACCUCUCUAUGG
RNA 2: GGGAAUGGAUCCACAUCUACGAAUUCGGACCAUAGAGAGGUUAUCCGCUCAUUCAGAUCGGAAGAGCACACGU
B4: target 1 MT 5'PFS GGC 3'PFS ACU (mixed)
RNA 1: CACCCGUGCAAAAAUGCAGGGGUCUAAAACUGAGCGGAUAACCUCUCUAUGG
RNA 2: GGGAAUGGAUCCACAUCUACGAAUUCGGCCCAUAGAGAGGUUAUCCGCUCAACUAGAUCGGAAGAGCACACGU
B5: target 1 MT 5'PFS GCC 3'PFS UCC (mixed)
RNA 1: CACCCGUGCAAAAAUGCAGGGGUCUAAAACUGAGCGGAUAACCUCUCUAUGG
RNA 2: GGGAAUGGAUCCACAUCUACGAAUUCGCCCCAUAGAGAGGUUAUCCGCUCAUCCAGAUCGGAAGAGCACACGU
B6: target 1 MT 5'PFS GAA 3'PFS AGU (mixed)
RNA 1: CACCCGUGCAAAAAUGCAGGGGUCUAAAACUGAGCGGAUAACCUCUCUAUGG
RNA 2: GGGAAUGGAUCCACAUCUACGAAUUCGAACCAUAGAGAGGUUAUCCGCUCAAGUAGAUCGGAAGAGCACACGU
B7: target 1 MT 5'PFS AUA 3'PFS UUC (mixed)
RNA 1: CACCCGUGCAAAAAUGCAGGGGUCUAAAACUGAGCGGAUAACCUCUCUAUGG
RNA 2: GGGAAUGGAUCCACAUCUACGAAUUCAUACCAUAGAGAGGUUAUCCGCUCAUUCAGAUCGGAAGAGCACACGU
B8: target 1 MT 5'PFS UCC 3'PFS CAU (mixed)
RNA 1: CACCCGUGCAAAAAUGCAGGGGUCUAAAACUGAGCGGAUAACCUCUCUAUGG
RNA 2: GGGAAUGGAUCCACAUCUACGAAUUCUCCCCAUAGAGAGGUUAUCCGCUCACAUAGAUCGGAAGAGCACACGU
B9: target 1 MT 5'PFS GCC 3'PFS UCA (mixed)
RNA 1: CACCCGUGCAAAAAUGCAGGGGUCUAAAACUGAGCGGAUAACCUCUCUAUGG
RNA 2: GGGAAUGGAUCCACAUCUACGAAUUCGCCCCAUAGAGAGGUUAUCCGCUCAUCAAGAUCGGAAGAGCACACGU
B10: target 1 MT 5'PFS ACA 3'PFS AAA (mixed)
RNA 1: CACCCGUGCAAAAAUGCAGGGGUCUAAAACUGAGCGGAUAACCUCUCUAUGG
RNA 2: GGGAAUGGAUCCACAUCUACGAAUUCACACCAUAGAGAGGUUAUCCGCUCAAAAAGAUCGGAAGAGCACACGU
B11: target 1 MT 5'PFS GGA 3'PFS UUU (mixed)
RNA 1: CACCCGUGCAAAAAUGCAGGGGUCUAAAACUGAGCGGAUAACCUCUCUAUGG
RNA 2: GGGAAUGGAUCCACAUCUACGAAUUCGGACCAUAGAGAGGUUAUCCGCUCAUUUAGAUCGGAAGAGCACACGU
B12: target 1 MT 5'PFS UCC 3'PFS CAA (mixed)
RNA 1: CACCCGUGCAAAAAUGCAGGGGUCUAAAACUGAGCGGAUAACCUCUCUAUGG
RNA 2: GGGAAUGGAUCCACAUCUACGAAUUCUCCCCAUAGAGAGGUUAUCCGCUCACAAAGAUCGGAAGAGCACACGU
B13: target 1 MT 5'PFS GCC 3'PFS UCU (mixed)
RNA 1: CACCCGUGCAAAAAUGCAGGGGUCUAAAACUGAGCGGAUAACCUCUCUAUGG
RNA 2: GGGAAUGGAUCCACAUCUACGAAUUCGCCCCAUAGAGAGGUUAUCCGCUCAUCUAGAUCGGAAGAGCACACGU
B14: target 1 MT 5'PFS GGA 3'PFS UUA (mixed)
RNA 1: CACCCGUGCAAAAAUGCAGGGGUCUAAAACUGAGCGGAUAACCUCUCUAUGG
RNA 2: GGGAAUGGAUCCACAUCUACGAAUUCGGACCAUAGAGAGGUUAUCCGCUCAUUAAGAUCGGAAGAGCACACGU
B15: target 1 MT 5'PFS UGC 3'PFS UAC (mixed)
RNA 1: CACCCGUGCAAAAAUGCAGGGGUCUAAAACUGAGCGGAUAACCUCUCUAUGG
RNA 2: GGGAAUGGAUCCACAUCUACGAAUUCUGCCCAUAGAGAGGUUAUCCGCUCAUACAGAUCGGAAGAGCACACGU
B16: target 1 MT 5'PFS GCC 3'PFS UCG (mixed)
RNA 1: CACCCGUGCAAAAAUGCAGGGGUCUAAAACUGAGCGGAUAACCUCUCUAUGG
RNA 2: GGGAAUGGAUCCACAUCUACGAAUUCGCCCCAUAGAGAGGUUAUCCGCUCAUCGAGAUCGGAAGAGCACACGU
B17: target 1 MT 5'PFS UCC 3'PFS CAG (mixed)
RNA 1: CACCCGUGCAAAAAUGCAGGGGUCUAAAACUGAGCGGAUAACCUCUCUAUGG
RNA 2: GGGAAUGGAUCCACAUCUACGAAUUCUCCCCAUAGAGAGGUUAUCCGCUCACAGAGAUCGGAAGAGCACACGU
B18: target 1 insU 3' of 6,insA 3' of 4 (mixed)
RNA 1: CACCCGUGCAAAAAUGCAGGGGUCUAAAACUGAGCGGAUAACCUCUCUAUGG
RNA 2: GGGAAUGGAUCCACAUCUACGAAUUCGUACCAUAGAGAGGUUAUCCUGCAUCACCGAGAUCGGAAGAGCACACGU
B19: target 1 MT 5'PFS UGU 3'PFS ACU (mixed)
RNA 1: CACCCGUGCAAAAAUGCAGGGGUCUAAAACUGAGCGGAUAACCUCUCUAUGG
RNA 2: GGGAAUGGAUCCACAUCUACGAAUUCUGUCCAUAGAGAGGUUAUCCGCUCAACUAGAUCGGAAGAGCACACGU
B20: target 1 MT 5'PFS GGA 3'PFS UUG (mixed)
RNA 1: CACCCGUGCAAAAAUGCAGGGGUCUAAAACUGAGCGGAUAACCUCUCUAUGG
RNA 2: GGGAAUGGAUCCACAUCUACGAAUUCGGACCAUAGAGAGGUUAUCCGCUCAUUGAGAUCGGAAGAGCACACGU
B21: target 1 MT 5'PFS UGU 3'PFS ACA (mixed)
RNA 1: CACCCGUGCAAAAAUGCAGGGGUCUAAAACUGAGCGGAUAACCUCUCUAUGG
RNA 2: GGGAAUGGAUCCACAUCUACGAAUUCUGUCCAUAGAGAGGUUAUCCGCUCAACAAGAUCGGAAGAGCACACGU
B22: target 1 MT 5'PFS UGU 3'PFS ACG (mixed)
RNA 1: CACCCGUGCAAAAAUGCAGGGGUCUAAAACUGAGCGGAUAACCUCUCUAUGG
RNA 2: GGGAAUGGAUCCACAUCUACGAAUUCUGUCCAUAGAGAGGUUAUCCGCUCAACGAGAUCGGAAGAGCACACGU
B23: target 1 MT 5'PFS AUA 3'PFS UUG (mixed)
RNA 1: CACCCGUGCAAAAAUGCAGGGGUCUAAAACUGAGCGGAUAACCUCUCUAUGG
RNA 2: GGGAAUGGAUCCACAUCUACGAAUUCAUACCAUAGAGAGGUUAUCCGCUCAUUGAGAUCGGAAGAGCACACGU

For this series, the target named is T1, EsCas13d, nuclease-dead. Kind of series: crRNA (strand 1, pre-loaded); Mg2+; 40 mM Tris-HCl pH 7.5, 150 mM NaCl, 6 mM MgCl2, 1 mM DTT, 0.1% Tween-20, 0.2 mg/ml BSA; 25 C; 10 min per concentration, then washed. As to conditions: tags: His6-TwinStrep-SUMO cleaved; N-terminal SNAP kept (SNAP-Surface 488); label: 3' end held by stalled T7 RNA polymerase.
Consider B1, for which the dissociation constant (Kd) was approximately 31 nM.
B2 returned a Kd of 32 ± 7 nM.
As for B3, the Kd came to 13.3 ± 2.5 nM.
For B4 the value was 14.4 ± 1.55 nM; for B5, 12.6 ± 4.75 nM; for B6, 43 ± 11.5 nM.
In turn, B7 registered a Kd of 16.5 ± 5.5 nM.
For B8 the value was 13 ± 5.5 nM; for B9, 27.5 ± 10 nM; for B10, approximately 49 nM.
As to B11, the Kd amounted to 13.4 ± 4.15 nM.
For B12 the value was approximately 18 nM; for B13, 12.2 ± 2.85 nM; for B14, 14.2 ± 3.1 nM.
For B15 the value was 32 ± 10.5 nM.
Under B16 stands 15.3 ± 3 nM.
The molecule B17 registered a Kd of approximately 60 nM.
For the molecule B18, the Kd amounted to 7.9 ± 0.6 nM.
For B19 the value was 34.5 ± 13.5 nM.
For B20 the value was 8.9 ± 0.8 nM; for B21, 71 ± 18 nM.
For B22 the value was approximately 80 nM; for B23, 10.8 ± 2.45 nM.
